# Reference: the DeepSol protein solubility set
# Experiment: soluble on expression in E. coli; label from the status in PepcDB or PDB records
row,Sequence,soluble on expression in E. coli
1,MITSECIIYLARKYQCKFILLGRSAILATEPEWSIGCVDESELKKRIMQHLIEQQEKPTPIKVQNLYKKICQSREIYQTLADIKQGGGEAEYLSIDVTDTSALKSALAPVVARLGRITGIIHGAGNLADKLIEHKTEQDFQTVYNVKIEGLHSLINCVDIAQLKFIALFSSFVSFYGNVGQSDYSLANEILNKYAYLLQRKYPECHVVSFGWGPWDGGMVTPQLKQLFTQKNIKLIPLRVGAEILAEELTQDHTKVPQLIIMSQGISVLPKAFSPEKHSYRLYRRLTLQGNPFVYDHVIGGNAVLPAVCALAWMTNICEQFYPGYHFLSCQKYKVLKGIVFDDNLANLYCLDLTEVEKSEEEIQLEALIWSETPKGIPLYHYRALINISQKSHAQQALTFEDFNYYESSLSLNPYQEGILFHHQRFRGIQKILEITANKLIASCFLPEISPAEQGQFLTQSFNPYTADMFFQCLLIWVRQTYGLGSLPLELTALKQFYTLPFNQEFLINLSIEEQSETKVVASAIAHDIQGKVYLEATNMQVTSSARLNQLFLNNTVASKNTVCMLEHHHHHH,not soluble
2,MGSDKIHHHHHHVPRVARIKSKSGIYHIIMRGINRQIVFEENEDCVKFIQTLQKIQAICKYRLYAYCLMGNHLHLLLMEGTEPLGNVMRRICSSYVLWYNKKYDRVGYLFQDRFKSEPVEDDGYFLTVLRYIFQNPVKAGIVTKIKDYKWTNYTDYIEGSNKTDTDFVLDFFNTNRERAIRSFIEYINKTNDDKCLDIPGKRQLTDEDAKKIIKDHCHIYNALDLYKFDVNKRNQYLKELKEGYGLSIRQIERLTGIGRGIIQRA,not soluble
3,MYEQACTTILVGKKATVDGSTMIARNDDTFMPITPQKFIVHPAVHGRNETLTSGKNGFTAPLPADGYRYQAVPNIEVAEKGVFEENGFNEKNVGVSSTESVYGNEHTLTFDPFVPNGLAEDSLPTMLTPFIDSARGGVEYLGQLIAKYGSPEGNGVLFNDKDDVWYMEIVTGHHWVAQRIPDDAYAVAANQVAIQWVDFDDPDNFMWSDGIQEFVAEHHLNPDKEGFNFRHIFGTDNEKDRHYNTPRVWYGQRYFNPEIEQDPQSSELPFICHAAKKISVADVEFVLGSHYNETKYDPFLNTPEAKKFRPISMNRTQNSHVMQVRNDVPAEQSAIMWMTFGVPAFAPYLPFHANVSETDPSFANTPLKHDMNSAYWLYRTLSMIVESHYADFVQDDIDYLKECRIELGQFVAATDEQAAKLSGDELTAFLTEQDKVMVAKMRDKAQALIGQLVTKGLTLSKLTYNVDINLLEHHHHHH,not soluble
4,MRPLDENLRTSAASRPAQSLSVRGQPEAESGAFGEAIADAGRRRTQGQGGQTSADDARRDSVANGGNASAVPKADGFGADVPASTADAASPDARPAYERAIITRDQAAKRLQHSHPAGTRHLSQGREDGGEEIAQPAERAVVRSRETVQTSRDSVDEASGVTAREGGENGDPASGTVSDLLSMLTGAAPAVAAASQPEGRAKPASAVRDGSDGPAKAVGGISPAVPDGEHPQTGEGTGGSEPDRLFRFARADGKGQAVSMNISRDGERAVVENSRSSVKPGVETVTVLEARRYLGLAVNENATSVTTAIAGDSGWAEALQSSAATTKPEAWSQAGKTLNTLKIQMHPVDLGMVTATLRLKDDELQVDLKVETGEAFRQLRDDQSEMVKALRAQGFAVDQVNIVFNGGGDSASGGGGQSQAQAQLGYEGRERAGDDGQGRQPRDGGRAATERWAGNDATDDVPDGAERSRAGHVYM,not soluble
5,MQMESQRRDVFYVSDGTAITCETLGHVVLGQFAVQPNEKTFPFVESDEKLSELLKQIQRSYQLHGVKPLVFFSMVIPEMRTRLLQAPAHFYDVLESIVQRVSLDIEMEPAPKLQRSRSVGKDSDTYFDRIAAIEYTLAHDDGVSLKDLDRADIILLGVSRSGKTPTSLYMAMQFGLRVVNYPFIAEDMHAMRLLPEFEFHRHKLFGLTINAERLTEIRENRLAGSEYASNQQCQQELATVEALFRREAISYINTSSLSVEEISTRILERTGLKRRLF,not soluble
6,MSSKDKKPSKPSSSRGGIRTLSDLNRRSGPDSDSDSDGPQEYYTGGEKSGMLVQDPSKKDDVDEIFNQARQLGAVEGPLEPPPSSRSFTGTGRLLSGENVPTGNQQPEPVVHNIVFWSNGFTIDDGPLRKLDDPENASFLEVNDFHSIRKSECPKELEPADRRAPVHVNLMRKEEKCPERQKRRVSFQGVGRTLGGSNEGSGSSSPVAPDSAPIPIQTEPAPSQSLVIDETVPTTSIQLRLADGTRLVAKFNHHHTVNDIRGFIDSSRPGASLNYQLQTMGFPPKPLTDLTQTIEEAGLANSVVLQKF,soluble
7,MKNRIIAAGVIAASILSYSSSSFAQTKTFPDVQTGHWAEDSINYLAEKGAVTGNEKGMFEPGKEITRAEAATMMAKILNLPIDKNAKPSYADSQKHWATPIIAAVEKAGVVKGTGNGFEPDGKIDRVSMASLLVEAYKLESKVNGTPATKFKDLETLNWGKEKANILVELGISVGTGDKWEPKKILTKAEAAQFIKKADSLKVGNPLVEKVVIIDPGHGGFDPGNPGQGVEESKIVFDTSLRLQKLLEKNTPLKALLTREENGNPGSNKNESLANRVKFGQENNADIFVSIHANSSEKHDGHGTETYYYKKSKRGEETQIEKDSEVLAKKIQNRVVEALHTRDRKIKDDHSLYVVNNNTVPAVLTELAFIDNDIDNGKLATESGRQIAAEAVYAGILDYYEWKGFDVSKYRLAK,not soluble
8,GPGSMRSQRVLQRTRKQKMESSSCASAPIAVDAQDVVVPPAVAQARAWLSLYGACCTEEEVEMHPVVLSRVLQAVELVQSRSCLSSGSEGPLAATTTKHTCRSGEGDAEAATARSSPTALHEGDDSKRGKGEAGLSIDFGGLWMLLSEWIAILRSLVATVPLHTLSLRDTALGDAGLRCLCRQVATTSVKPASLEVASRCEACSFHLLGLSTLAAPPSCPPTIPGSWAASTLRLLDLSGAALTDGGPLASLLASCPQLHSLNLSDNSLGSRDAGLALLCAALQVHPSLEVLSLRRNCISGSRNGPAIAALAELIVARSVEGSRTLSKACGYGSALCRQQTPAAAAVAAQPLRRLDLSHNLLGTYFLLSDATMTHRAEAGRPSAAREYDMASSSGRHVGVHEAVASFPLVAALYLNNTLIELNLHNNGLPGALLEYVEAKLHVNQRTTGGGADFSKTVSTEIIASTTVRQVLIHRLRCTLDHILAGTANASGMVGATHTERGDAPPTEVPAESQSSVLSAAERRWTTGEVSELVQRLVYNVASDLSLF,not soluble
9,MGSDKIHHHHHHMTSPHSFSVTPIRTMADGTIKQIHPFTGTEVWTVPGRGNRPLSHPASTIVELSAHDHTSYCAFCSDNMLSTPPEKSRIIIDSSGDFDILPGALPGELSETTPEFRRVPNLFEIVSFDYWHQNFGFDMDSETAMRMAQYLAIPEGREHVLAIVRTRLSAAGEDPAHMTDGELLEKAPSYFAGGHDVIIGRRHFVDDATTSDQLASSGTLTVKEHEAFIRLTVDGIRDLYHRNRYAPYVVAFQNWLKPAGASFDHLHKQLVAIDERGRLIADELHHLRGNPNMYNELAVDYAGYHNLIIAENDHAVAFAGFGHRYPTIEIYSKSAIPEPWLQSDEEIQAMSNLIHACHAATGADVPCNEEWVHKPIDVDMPMPWHVMIKWRVSTLAGFEGGTKVYLNTLSPHKVRDRVVKEMYRLRDEELIASDLRIAMECSVERNSLKYNPLL,not soluble
10,MAHHHHHHMDGQSSSPAEPASGSVALLYDYTTANDAPVEVHRAAAGRLACSYRAECLAIENGFGHLMPPCLGTSQSPTRILVATDSLSAIEAFRCPLAMRDRVTEAILIMPLSLVKRGRPVEFIFSPSHCGIPRNEATDEEATISISLPQEGIPIWHVDFLTAVKRLCWKEFQEEAEGAYTARQAFVGVARTPFLISSQK,not soluble
11,MRGRPIELEPWQQFAFACILGFKVKATGRRKYTSAFIEVPRKNAKSTTAAILANWFLIMENGQQDIYTAAVSRDQARIVFDNARQMCLLSRPLRRRVNIQAHKVIHPKSNSLLKPLAAKAATIEGTNPSLSIVDEYHLHPDNGVYSALELGMGARPEGLLFAITTSGSNVVSACKQHYDYCCQILDGEEVNDSIFVLIYELDDENEVDDPAMWIKANPNIDVSVDREKLASTIQKARGIPSQWVEMMTKRFNIWCQGTTPWMGNGAWAECAGTFTEEDLHGQECYAGLDLSSTSDISSVCYAFPVGKTIMLISRHYLPEFQLQNPANKNRAVYRQWAKAGWIRTTPGDCIDYDRIRDDIMQDAEKFNIRLVGFDTWNATHLRTQLQGAGFEVEPFPQTYLRFSPAAKSFEVFVNRRVIVHRGDPVLSWSMSNVVMQSDANANIKPNKKKSPNKIDPSVAALMAFGTFQAEHEDFAFDISDSHRQKLEEFSGV,not soluble
12,MHRNYFKKKQNLIFSEKQQSVEKYGDDWVHHFHTANARETFGKKIFGIFFPRNLSIERTRETPTAKEGDLLHNGNY,not soluble
13,MSLTITRIETIPMVAPLAREFRGSHYHMTHRATIVTRVHTDAGIIGEAYTGDEHETMFDIDRIIHEELAPTLIGQDAMAIERLWDSGYKVTFDILRDRRLGLVALAAVNTAIWDAVGKALKMPLWKLWGGYRNELPMIAIGGYYGEPLGSIADEMHNYQELGLAGVKFKVGGLSAAEDAARITAAREAAGDDFIICIDANQGYKPAVAVDLSRRIADLNIRWFEEPVEWHNDKRSMRDVRYQGSVPVCAGQTEFSASGCRDLMETGAIDVCNFDSSWSGGPTAWLRTAAIATSYDVQMGHHEEPQVSTHLLASQPHGTIAECFHPDRDPFWWNMITNRPKLNNGTLTLSDRPGLGWDLNWDYIDQYRVSKDEGHHHHHH,soluble
14,MGSDKIHHHHHHMNFEVLVKHISTIQNTLQAQAAHAVNLALTSRNWLMGCYIVEFEQNGEDRAAYGEQLLKKLEQRLKTKGLNERRFREFRRLYLVYPQLKESVTQYIASQIQIRQSLTAEFTEPIRRLVTAESENGVWKLSTEHPQTETWMIPADRLFNRLSSTHLNTISGIENPIKRAFYEMETIRGCWSVKELERQIASLYYERSGLSKNKEALSALVQQQVTLLQPKDVINTPVTLEFLGLNERALVTENDLEQSILDNLQHFLLEMGHGFCFEARQKRILIDEDYFFADLVFYHRILKCHIIVELKIDKFRHEYASQLNMYLNYFKAEVMQPDDNPPIGILLCTEKGDTLVKYATAGLDPNIFVQKYMIELPSEEEIKRFILGVNF,not soluble
15,GPLGSDDVEWVVGKDKPTYDEIFYTLSPVNGKITGANAKKEMVKSKLPNTVLGKIWKLADVDKDGLLDDEEFALANHLIKVKLEGHELPADLPPHLVPPSKRRHE,soluble
16,MIEIKRIQQQPDLAQAIYAVMAAVYLVSPWTLEQIQADLSQDQTWYALAYDGAEVIGFLAVQENLFEAEVLQIAVKGAYQGQGIASALFAQLPTDKEIFLEVRQSNQRAQAFYKKEKMTVIAERKAYYHDPVEDAIIMKREIDEG,soluble
17,SQEQAQTTDWRATLKTIRNGVHKIDTYLNAALDLLGGEDGLCQYKCSDGSKPFPRYGYKPSPPNGCGSPLFGVHLNIGIPSLTKCCNQHDRCYETCGKSKNDCDEEFQYCLSKICRDVQKTLGLTQHVQACETTVELLFDSVIHLGCKPYLDSQRAACRCHYEEKTDL,soluble
18,SNAMKLTPNYYRDRVCLNVLAGSKDNARAIYQAAEGHVLVGVLSKNYPDVDSAVKDMREYAALIDNALSVGLGAGDPRQSVMVSQISQQVQPQHVNQVFTGVGASRALLGQHDTVVNGLISPTGKVGYVKISTGPLSSQQKDAIVPVTTAIAMLKDMGGSSVKFFPMNGLDSIDEYRFVAEACAATGFWLEPTGGIDLDNFEQIVQIALDAGVTKVIPHIYSSIIDSKTGNTRPEDVKTLLDIVKKIVQ,soluble
